The text below walks through data of article PMC5800781.

One data set concerns the target RAD51 (human, UniProt Q06609 1-339). Kind of data set: single-molecule DNA curtain.
For another data set, the target named is RAD51;BRCA1;BARD1 (human;human?;human?, UniProt Q06609;P38398;Q99728 1-339;1-1863;1-777, ||). Description: single-molecule DNA curtain.
For the next data set, the target named is BRCA1;BARD1 (human?;human?, UniProt P38398;Q99728 1-1863;1-777, |). Description: EMSA. On the technique in general: In EMSA bound probe runs differently from free probe, usually more slowly.
In the next data set the target is BARD1 124-270 (UniProt Q99728 124-270). Kind of data set: EMSA.
The target in a further data set is BRCA1 (UniProt P38398 1-1863). Kind of data set: Southwestern.
Another data set deals with BARD1 (UniProt Q99728 1-777). Kind of data set: Southwestern.
Chain of BARD1 (Q99728 whole entry): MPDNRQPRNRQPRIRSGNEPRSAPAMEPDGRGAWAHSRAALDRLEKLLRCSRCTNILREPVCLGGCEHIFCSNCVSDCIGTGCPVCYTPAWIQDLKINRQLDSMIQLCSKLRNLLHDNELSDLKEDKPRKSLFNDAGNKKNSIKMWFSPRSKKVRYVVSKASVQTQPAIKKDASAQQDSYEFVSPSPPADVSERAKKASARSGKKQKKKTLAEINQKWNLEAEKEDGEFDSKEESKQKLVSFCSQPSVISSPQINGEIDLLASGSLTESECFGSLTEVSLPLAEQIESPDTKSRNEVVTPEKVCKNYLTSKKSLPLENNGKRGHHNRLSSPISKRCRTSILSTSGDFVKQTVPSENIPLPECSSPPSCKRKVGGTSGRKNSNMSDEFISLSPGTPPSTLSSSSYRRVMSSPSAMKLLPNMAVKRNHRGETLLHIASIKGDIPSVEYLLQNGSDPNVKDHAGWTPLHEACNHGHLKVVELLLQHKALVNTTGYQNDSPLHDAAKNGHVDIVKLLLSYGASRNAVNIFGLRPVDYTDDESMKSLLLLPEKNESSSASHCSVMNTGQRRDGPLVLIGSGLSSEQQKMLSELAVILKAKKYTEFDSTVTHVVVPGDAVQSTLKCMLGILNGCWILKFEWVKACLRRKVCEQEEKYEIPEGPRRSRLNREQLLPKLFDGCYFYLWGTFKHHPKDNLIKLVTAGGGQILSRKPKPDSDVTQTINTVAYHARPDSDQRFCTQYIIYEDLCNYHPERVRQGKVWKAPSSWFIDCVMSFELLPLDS

Chain of BARD1 124-270 (Q99728 124-270): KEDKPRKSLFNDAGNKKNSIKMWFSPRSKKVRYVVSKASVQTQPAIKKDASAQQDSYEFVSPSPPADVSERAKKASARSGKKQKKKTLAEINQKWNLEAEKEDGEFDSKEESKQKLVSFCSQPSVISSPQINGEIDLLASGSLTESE
Chain of RAD51 (Q06609 whole entry): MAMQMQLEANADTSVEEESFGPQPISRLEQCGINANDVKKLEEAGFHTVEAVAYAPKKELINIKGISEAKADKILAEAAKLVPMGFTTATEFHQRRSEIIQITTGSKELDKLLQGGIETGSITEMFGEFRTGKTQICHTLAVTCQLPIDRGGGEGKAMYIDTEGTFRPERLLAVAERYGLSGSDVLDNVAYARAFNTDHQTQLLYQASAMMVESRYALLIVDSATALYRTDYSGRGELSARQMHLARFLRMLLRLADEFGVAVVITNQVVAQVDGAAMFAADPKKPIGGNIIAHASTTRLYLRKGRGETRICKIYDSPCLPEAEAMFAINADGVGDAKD

B1: Atto565 dsDNA 70 bp with 9-nt homology (dsDNA)
DNA 1: CCGGAGGCCTTAGGCCTTAGGCCTTAGGCCTTCAGCTGTTAGCCTTAGCTAGCTAGCTAGCTAGCTAGCT
DNA 2: AGCTAGCTAGCTAGCTAGCTAGCTAAGGCTAACAGCTGAAGGCCTAAGGCCTAAGGCCTAAGGCCTCCGG
Turning to B1, the binding result with RAD51 and with RAD51;BRCA1;BARD1 was “binds” each time.

B2: D-loop (mixed)
DNA 1: CATTGCATATTTAAAACATGTTGGAAGGCTCGATGCATGCTGATAGCCTACTAGTGCTGCTGGCTTTCAAATGACCTCTTATCAAGTGAC
DNA 2: GTCACTTGATAAGAGGTCATTTGAATTCATGGCTTAGAGCTTAATTGCTGAATCTGGTGCTGGGATCCAACATGTTTTAAATATGCAATG
DNA 3: CTGCTACGATGCTAGTCGTAGCTCGGCAGTCGTAGCAGGTTCCCAGCACCAGATTCAGCAATTAAGCTCTAAGCCATGAA
With B2, the binding result in the data set with BRCA1;BARD1, with BARD1 124-270, with BRCA1 and with BARD1 was “binds” throughout.

B3: DNA bubble (mixed)
DNA 1: CATTGCATATTTAAAACATGTTGGAAGGCTCGATGCATGCTGATAGCCTACTAGTGCTGCTGGCTTTCAAATGACCTCTTATCAAGTGAC
DNA 2: GTCACTTGATAAGAGGTCATTTGAATTCATGGCTTAGAGCTTAATTGCTGAATCTGGTGCTGGGATCCAACATGTTTTAAATATGCAATG
Take B3: the binding result in the data set with BRCA1;BARD1 and in the data set with BARD1 124-270 was “binds” throughout.

B4: replication fork (RF) (mixed)
DNA 1: GACGCTGCCGAATTCTACCAGTGCCTTGCTAGGACATCTTTGCCCACCTGCAGGTTCACCC
DNA 2: GGACATCTTTGCCCACCTGCAGGTTCACCC
DNA 3: TGGGTGAACCTGCAGGTGGGCAAAGATGTCC
DNA 4: GGGTGAACCTGCAGGTGGGCAAAGATGTCCCAGCAAGGCACTGGTAGAATTCGGCAGCGTC
For the molecule B4, the binding result in the data set with BRCA1;BARD1 is recorded as “binds”.
